The test concerns the target T1, GST-Esc2 (Saccharomyces cerevisiae, UniProt Q06340 1-456).
T1 construct: Esc2, Saccharomyces cerevisiae, full-length gene cloned into BamHI/SalI of pGEX-6P-2; pGEX-6P-2 should place GST at the N-terminus (surmised from the vector); also called recombinant glutathione S-transferase (GST)-Esc2; GST-tagged Esc2; source: E. coli BL21 (DE3), purified (glutathione-Sepharose 4B, eluted with reduced glutathione, dialysed)
T1 sequence (looked up): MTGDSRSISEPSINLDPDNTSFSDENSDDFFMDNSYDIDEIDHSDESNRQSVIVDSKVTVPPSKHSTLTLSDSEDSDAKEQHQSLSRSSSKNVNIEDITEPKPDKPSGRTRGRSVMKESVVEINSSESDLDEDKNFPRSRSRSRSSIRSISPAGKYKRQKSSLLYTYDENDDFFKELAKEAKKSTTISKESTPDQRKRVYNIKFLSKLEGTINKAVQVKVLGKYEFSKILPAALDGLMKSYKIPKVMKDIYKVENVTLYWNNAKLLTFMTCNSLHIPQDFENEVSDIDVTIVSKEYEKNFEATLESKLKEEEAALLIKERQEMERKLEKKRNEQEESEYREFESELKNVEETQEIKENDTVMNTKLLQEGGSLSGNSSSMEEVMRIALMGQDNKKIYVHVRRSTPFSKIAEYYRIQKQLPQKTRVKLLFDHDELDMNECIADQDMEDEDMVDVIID
The test can be described thus: peptide or protein array; PEPperPRINT microarray of 15-aa peptides covering the entire Mms4 and Mus81 with 14-aa overlaps, printed in duplicate; purified GST-Esc2 in solution, detected with anti-GST DyLight680. The note with it: both partners purified.

B1: Mus81 peptide EKGTKKRKTRKYIPK (peptide)
peptide: EKGTKKRKTRKYIPK
notes: 15-aa stretch of Mus81, S. cerevisiae; Immobilised on the array; It is printed as the 'consensus motif' of a response peak of overlapping 15-mers; source: synthetic peptide, printed on a peptide microarray (PEPperPRINT GmbH)
As for B1, the binding result is “binds”.

B2: Mms4 peptide RSKKSSQVGKLGIKK (peptide)
peptide: RSKKSSQVGKLGIKK
notes: 15-aa stretch of Mms4, S. cerevisiae; Immobilised on the array; It is printed as the 'consensus motif' of a response peak of overlapping 15-mers; source: synthetic peptide, printed on a peptide microarray (PEPperPRINT GmbH)
As to B2, the binding result was “binds”.

Values taken from paper PMC7665200, “Mus81-Mms4 endonuclease is an Esc2-STUbL-Cullin8 mitotic substrate impacting on genome integrity” (Nature Communications, 2020).
